Assay results as given in paper PMC5286426, “The Calcium-Dependent Switch Helix of L-Plastin Regulates Actin Bundling” (Scientific Reports, 2017).
“Also recorded” adds a separate entry of the source.

Tests used:
[1] = test system: actin; conditions: in vitro; cited from earlier work
From the text: LPL is comprised of two N-terminal EF-hand motifs (head-piece domain), which are homologous to a single domain of calmodulin (CaM) (34.7% identical), followed by two actin-binding domains (ABDs)[5]. Each ABD consists of two independently folded calponin homology (CH) domains. While many signaling and cytoskeletal proteins share these CH domains, plastins are the only known proteins to have two tandem ABDs[31][32][33]. The four CH domains are each folded into a compact globular shape where the ABD1 and ABD2 are arranged back-to-back[34][35]. Each ABD can bind an actin-filament, thereby LPL ... || In order to further investigate the role of H5 in the Ca^2+-dependent actin-bundling of LPL, we have performed actin-bundling assays with a series of different LPL constructs (Fig. 4).

[2] = cited from earlier work
From the text: L-plastin (LPL) is a 70 kDa Ca^2+- and actin-binding protein that plays an important role in both the adaptive and innate immune system. Among the three isoforms found in humans (L-, T-, and I-plastin), LPL is exclusively expressed in cells of hematopoietic origin, where it can act as an actin cross-linker by promoting actin bundling. The actin-bundling activity of LPL is known to be calcium-dependent, where increasing calcium concentrations inhibit the formation of actin-bundles[9][10].

[3] = test system: Human platelet actin (F-actin); experiment: Actin-bundling assay, low-speed centrifugation and SDS-PAGE; format: biochemical; conditions: 6 µM F-actin, n = 3 (Fig. 4a); for Amount of actin found in the pellet: 3 µM LPL construct, pH 7.5, room temperature, 1 h; for Amount of LPL found in the pellet: 3 µM LPL
Protocol: Human platelet actin (Cytoskeleton) was dissolved in 2 mM Tris pH7.5, 0.2 mM CaCl2, 0.2 mM ATP, and 0.5 mM DTT (Buffer G). The actin was then polymerized overnight at 4 °C in 20 mM Tris pH 7.5, 100 mM KCl, and 1 mM MgCl2. Spontaneously bundled F-actin was removed by centrifugation at 12,000 g for 15 min prior to the assay. F-actin and LPL constructs were incubated at room temperature for 1 h in 50 uL of the buffer containing 20 mM Tris pH7.5, 100 mM KCl, 1 mM MgCl2, 6 µM F-actin, 3 µM LPL construct, 0.1 mM CaCl2, 0.1 mM ATP with and without 5 mM EGTA. LPL induced actin bundles were sedimented by centrifugation at 12,000 g for 15 min and the supernatant was carefully removed. The amount of actin and/or LPL construct in the pellet was analyzed by SDS-PAGE. The effect of the presence of 12 µM melittin peptide on actin-bundling was also examined.

[4] = test system: CaM; conditions: CaM-pull down; cited from earlier work
From the text: The H5 region of LPL was previously predicted as a potential binding site for CaM[48]. Indeed this sequence produced a high theoretically predicted score for CaM binding. […] Therefore, we have tested the interaction between EF-H5 and CaM in the presence of EDTA. However, ...

[5] = test system: actin; conditions: compared to the non-phosphorylated LPL protein; cited from earlier work
From the text: In addition to the Ca^2+ switch, the targeting of LPL to the actin cytoskeleton is also regulated by the phosphorylation of Ser5[41]. Among all three human plastin isoforms, LPL is the only isoform that is currently known to be phosporylated in vivo[40]. Unlike other actin-binding proteins, where phosphorylation usually occurs in the actin-binding domain, LPL phosphorylation seems to take place on the regulatory Ca^2+-binding domain. […] They hypothesized ...

B1: ABD1: actin-binding domain 1 of LPL (residues 113–379) (protein, UniProt P13796 113-379, looked up, fragment)
chain: GTQHSYSEEEKYAFVNWINKALENDPDCRHVIPMNPNTNDLFNAVGDGIVLCKMINLSVPDTIDERTINKKKLTPFTIQENLNLALNSASAIGCHVVNIGAEDLKEGKPYLVLGLLWQVIKIGLFADIELSRNEALIALLREGESLEDLMKLSPEELLLRWANYHLENAGCNKIGNFSTDIKDSKAYYHLLEQVAPKGDEEGVPAVVIDMSGLREKDDIQRAECMLQQAERLGCRQFVTATDVVRGNPKLNLAFIANLFNRYPALHK
modifications: actin-binding domain 1
**Q.** With B1 as the molecule, how does the “Actin binding of ABD1 relative to ABD2” value [1] read?
**A.** The value was “an order of magnitude stronger than ABD2; also recorded: ten times stronger than ABD2”.

B2: T-plastin: plastin isoform from solid tissues, such as fibroblasts and epithelial cells (protein, UniProt P13797 1-630, looked up)
Plastin-3: MDEMATTQISKDELDELKEAFAKVDLNSNGFICDYELHELFKEANMPLPGYKVREIIQKLMLDGDRNKDGKISFDEFVYIFQEVKSSDIAKTFRKAINRKEGICALGGTSELSSEGTQHSYSEEEKYAFVNWINKALENDPDCRHVIPMNPNTDDLFKAVGDGIVLCKMINLSVPDTIDERAINKKKLTPFIIQENLNLALNSASAIGCHVVNIGAEDLRAGKPHLVLGLLWQIIKIGLFADIELSRNEALAALLRDGETLEELMKLSPEELLLRWANFHLENSGWQKINNFSADIKDSKAYFHLLNQIAPKGQKEGEPRIDINMSGFNETDDLKRAESMLQQADKLGCRQFVTPADVVSGNPKLNLAFVANLFNKYPALTKPENQDIDWTLLEGETREERTFRNWMNSLGVNPHVNHLYADLQDALVILQLYERIKVPVDWSKVNKPPYPKLGANMKKLENCNYAVELGKHPAKFSLVGIGGQDLNDGNQTLTLALVWQLMRRYTLNVLEDLGDGQKANDDIIVNWVNRTLSEAGKSTSIQSFKDKTISSSLAVVDLIDAIQPGCINYDLVKSGNLTEDDKHNNAKYAVSMARRIGARVYALPEDLVEVKPKMVMTVFACLMGRGMKRV
**Q.** For B2, which “Sensitivity to intracellular Ca^2+-signals” value [2] is on record?
**A.** Its value is “relatively insensitive”.

B3: LPL: 70 kDa Ca^2+- and actin-binding protein, full-length human L-plastin (protein)
chain: MARGSVSDEEMMELREAFAKVDTDGNGYISFNELNDLFKAACLPLPGYRVREITENLMATGDLDQDGRISFDEFIKIFHGLKSTDVAKTFRKAINKKEGICAIGGTSEQSSVGTQHSYSEEEKYAFVNWINKALENDPDCRHVIPMNPNTNDLFNAVGDGIVLCKMINLSVPDTIDERTINKKKLTPFTIQENLNLALNSASAIGCHVVNIGAEDLKEGKPYLVLGLLWQVIKIGLFADIELSRNEALIALLREGESLEDLMKLSPEELLLRWANYHLENAGCNKIGNFSTDIKDSKAYYHLLEQVAPKGDEEGVPAVVIDMSGLREKDDIQRAECMLQQAERLGCRQFVTATDVVRGNPKLNLAFIANLFNRYPALHKPENQDIDWGALEGETREERTFRNWMNSLGVNPRVNHLYSDLSDALVIFQLYEKIKVPVDWNRVNKPPYPKLGGNMKKLENCNYAVELGKNQAKFSLVGIGGQDLNEGNRTLTLALIWQLMRRYTLNILEEIGGGQKVNDDIIVNWVNETLREAKKSSSISSFKDPKISTSLPVLDLIDAIQPGSINYDLLKTENLNDDEKLNNAKYAISMARKIGARVYALPEDLVEVNPKMVMTVFACLMGKGMKRV
modifications: left off: GST, end not stated, cleaved
**Q.** Which results are given for B3?
**A.** Amount of actin found in the pellet ([3]; in the presence of Ca^2+ (0.1 mM CaCl2)): ~ 50%; Amount of actin found in the pellet ([3]; in the presence of EGTA, 5 mM EGTA): ~ 90%; Amount of LPL found in the pellet ([3]; with Ca^2+): ~ 50%; Amount of LPL found in the pellet ([3]; with EGTA): ~ 70%; Sensitivity to intracellular Ca^2+-signals [2]: optimal Ca^2+-binding affinity to respond to intracellular Ca^2+-signals; Direct binding to CaM [4]: only seen in the absence of Ca^2+

B4: S5E mutant: LPL S5E mutant of Janji and coworkers (protein, UniProt P13796 2-627, looked up, variant S5E)
Plastin-2: ARGEVSDEEMMELREAFAKVDTDGNGYISFNELNDLFKAACLPLPGYRVREITENLMATGDLDQDGRISFDEFIKIFHGLKSTDVAKTFRKAINKKEGICAIGGTSEQSSVGTQHSYSEEEKYAFVNWINKALENDPDCRHVIPMNPNTNDLFNAVGDGIVLCKMINLSVPDTIDERTINKKKLTPFTIQENLNLALNSASAIGCHVVNIGAEDLKEGKPYLVLGLLWQVIKIGLFADIELSRNEALIALLREGESLEDLMKLSPEELLLRWANYHLENAGCNKIGNFSTDIKDSKAYYHLLEQVAPKGDEEGVPAVVIDMSGLREKDDIQRAECMLQQAERLGCRQFVTATDVVRGNPKLNLAFIANLFNRYPALHKPENQDIDWGALEGETREERTFRNWMNSLGVNPRVNHLYSDLSDALVIFQLYEKIKVPVDWNRVNKPPYPKLGGNMKKLENCNYAVELGKNQAKFSLVGIGGQDLNEGNRTLTLALIWQLMRRYTLNILEEIGGGQKVNDDIIVNWVNETLREAKKSSSISSFKDPKISTSLPVLDLIDAIQPGSINYDLLKTENLNDDEKLNNAKYAISMARKIGARVYALPEDLVEVNPKMVMTVFACLMGKGMKRV
**Q.** With B4 as the molecule, how does the Actin bundling activity [5] read?
**A.** The Actin bundling activity was “increased actin bundling activity”.
